# Assay results published in the supplement of paper PMC10567573.
# B1: RIPK4 (parent)
# chain: AAWQGHLPIVKLLAKQPGVSVNAQ
# B2: ESRRG (parent)
# chain: YSCPATNECEITKRRRKSCQACRF
# Variants of: B1
# Assay: protein stability index of a GFP-peptide fusion (GPS, HEK-293T) (PSI 1-6); higher = more stable
# Conditions: c terminus: a fixed tail appended
# 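Note: lentivirally expressed fusions sorted by FACS into six bins by GFP to DsRed ratio, PSI derived from sequencing read proportions per bin multiplied by bin number.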
row,Variant,protein stability index
1,AAWQGHLPIVKLLAKQPGVSVNYQ,1.63
2,AAWQGHLPIVKLLAKQPGVSVNVQ,2.19
3,AAWQGHLPIVKLLAKQPGVSVNAW,1.58
4,AAWQGHLPIVKLLAKQPGVSVNAT,1.93
5,AAWQGHLPIVKLLAKQPGVSVNAE,3.17
6,AAWQGHLPIVKLLAKQPGVSVNAA,2.08
7,AAWQGHLPIVKLLAKQPGVSVNAN,2.39
8,AAWQGHLPIVKLLAKQPGVSVNAY,1.5
9,AAWQGHLPIVKLLAKQPGVSVNAG,1.93
10,AAWQGHLPIVKLLAKQPGVSVNAL,2.83
11,AAWQGHLPIVKLLAKQPGVSVNAK,2.78
12,AAWQGHLPIVKLLAKQPGVSVNAH,1.93
13,AAWQGHLPIVKLLAKQPGVSVNAM,1.86
14,AAWQGHLPIVKLLAKQPGVSVNAF,2.07
15,AAWQGHLPIVKLLAKQPGVSVNAD,3.29
16,AAWQGHLPIVKLLAKQPGVSVNAS,2.69
17,AAWQGHLPIVKLLAKQPGVSVNAV,3.06
18,AAWQGHLPIVKLLAKQPGVSVNAP,1.89
19,AAWQGHLPIVKLLAKQPGVSVNAC,2.19
20,AAWQGHLPIVKLLAKQPGVSVNAI,1.61
21,AAWQGHLPIVKLLAKQPGVSVNAR,3.16

# Variants of: B2
# Assay: as above
# Conditions: c terminus: a fixed tail appended
row,Variant,protein stability index
1,YSCKATNECEITKRRRKSCQACRF,3.18
2,YSCWATNECEITKRRRKSCQACRF,1.47
3,YSCHATNECEITKRRRKSCQACRF,2.91
4,YSCGATNECEITKRRRKSCQACRF,2.93
5,YSCEATNECEITKRRRKSCQACRF,3.2
6,YSCRATNECEITKRRRKSCQACRF,3.09
7,YSCIATNECEITKRRRKSCQACRF,2.53
8,YSCDATNECEITKRRRKSCQACRF,3.48
9,YSCMATNECEITKRRRKSCQACRF,2.76
10,YSCCATNECEITKRRRKSCQACRF,2.92
11,YSCVATNECEITKRRRKSCQACRF,3.09
12,YSCLATNECEITKRRRKSCQACRF,2.64
13,YSCSATNECEITKRRRKSCQACRF,3.11
14,YSCFATNECEITKRRRKSCQACRF,2.39
15,YSCAATNECEITKRRRKSCQACRF,3.03
16,YSCYATNECEITKRRRKSCQACRF,2.59
17,YSCTATNECEITKRRRKSCQACRF,3.21
18,YSCNATNECEITKRRRKSCQACRF,3.24
19,YSCQATNECEITKRRRKSCQACRF,3.11
20,ASCPATNECEITKRRRKSCQACRF,4.13
21,MSCPATNECEITKRRRKSCQACRF,4.2
22,TSCPATNECEITKRRRKSCQACRF,4.35
23,GSCPATNECEITKRRRKSCQACRF,4.02
24,WSCPATNECEITKRRRKSCQACRF,3.11

row,Variant,protein stability index
1,CSCPATNECEITKRRRKSCQACRF,4.88
2,SSCPATNECEITKRRRKSCQACRF,4.28
3,PSCPATNECEITKRRRKSCQACRF,4.32
4,DSCPATNECEITKRRRKSCQACRF,4.05
5,NSCPATNECEITKRRRKSCQACRF,4.29
6,FSCPATNECEITKRRRKSCQACRF,3.36
7,KSCPATNECEITKRRRKSCQACRF,3.92
8,ESCPATNECEITKRRRKSCQACRF,4.13
9,ISCPATNECEITKRRRKSCQACRF,3.6
10,RSCPATNECEITKRRRKSCQACRF,4.21
11,LSCPATNECEITKRRRKSCQACRF,4.09
12,QSCPATNECEITKRRRKSCQACRF,4.19
13,VSCPATNECEITKRRRKSCQACRF,3.93
14,HSCPATNECEITKRRRKSCQACRF,3.8
15,YSCPATNHCEITKRRRKSCQACRF,3.14
16,YSCPATNRCEITKRRRKSCQACRF,3.13
17,YSCPATNACEITKRRRKSCQACRF,3.46
18,YSCPATNICEITKRRRKSCQACRF,2.87
19,YSCPATNMCEITKRRRKSCQACRF,2.88
20,YSCPATNCCEITKRRRKSCQACRF,3.12
21,YSCPATNYCEITKRRRKSCQACRF,2.32
22,YSCPATNTCEITKRRRKSCQACRF,3.25
23,YSCPATNWCEITKRRRKSCQACRF,1.96
24,YSCPATNVCEITKRRRKSCQACRF,3.05

row,Variant,protein stability index
1,YSCPATNLCEITKRRRKSCQACRF,3.02
2,YSCPATNSCEITKRRRKSCQACRF,2.97
3,YSCPATNGCEITKRRRKSCQACRF,3.54
4,YSCPATNQCEITKRRRKSCQACRF,3.52
5,YSCPATNDCEITKRRRKSCQACRF,2.92
6,YSCPATNPCEITKRRRKSCQACRF,3.26
7,YSCPATNFCEITKRRRKSCQACRF,1.91
8,YSCPATNNCEITKRRRKSCQACRF,3.29
9,YSCPATNKCEITKRRRKSCQACRF,3.14
10,YSPPATNECEITKRRRKSCQACRF,3.58
11,YSSPATNECEITKRRRKSCQACRF,3.56
12,YSDPATNECEITKRRRKSCQACRF,3.72
13,YSAPATNECEITKRRRKSCQACRF,4.23
14,YSYPATNECEITKRRRKSCQACRF,3.81
15,YSRPATNECEITKRRRKSCQACRF,3.05
16,YSVPATNECEITKRRRKSCQACRF,4.16
17,YSGPATNECEITKRRRKSCQACRF,3.44
18,YSWPATNECEITKRRRKSCQACRF,2.83
19,YSMPATNECEITKRRRKSCQACRF,3.55
20,YSQPATNECEITKRRRKSCQACRF,3.62
21,YSLPATNECEITKRRRKSCQACRF,3.53
22,YSIPATNECEITKRRRKSCQACRF,3.37
23,YSTPATNECEITKRRRKSCQACRF,3.99
24,YSNPATNECEITKRRRKSCQACRF,3.79

row,Variant,protein stability index
1,YSKPATNECEITKRRRKSCQACRF,3.83
2,YSFPATNECEITKRRRKSCQACRF,3.12
3,YSEPATNECEITKRRRKSCQACRF,4.09
4,YSHPATNECEITKRRRKSCQACRF,2.7
5,YSCPATNEPEITKRRRKSCQACRF,3.5
6,YSCPATNEQEITKRRRKSCQACRF,3.47
7,YSCPATNEIEITKRRRKSCQACRF,3.48
8,YSCPATNEHEITKRRRKSCQACRF,3.68
9,YSCPATNEGEITKRRRKSCQACRF,3.82
10,YSCPATNEEEITKRRRKSCQACRF,3.79
11,YSCPATNELEITKRRRKSCQACRF,3.08
12,YSCPATNESEITKRRRKSCQACRF,3.66
13,YSCPATNEMEITKRRRKSCQACRF,3.59
14,YSCPATNEDEITKRRRKSCQACRF,3.4
15,YSCPATNEFEITKRRRKSCQACRF,3.32
16,YSCPATNEKEITKRRRKSCQACRF,3.91
17,YSCPATNEAEITKRRRKSCQACRF,3.39
18,YSCPATNEREITKRRRKSCQACRF,3.38
19,YSCPATNENEITKRRRKSCQACRF,3.18
20,YFCPATNECEITKRRRKSCQACRF,3
21,YLCPATNECEITKRRRKSCQACRF,2.96
22,YNCPATNECEITKRRRKSCQACRF,3.4
23,YGCPATNECEITKRRRKSCQACRF,3.58
24,YICPATNECEITKRRRKSCQACRF,1.92

row,Variant,protein stability index
1,YPCPATNECEITKRRRKSCQACRF,2.98
2,YVCPATNECEITKRRRKSCQACRF,2.23
3,YECPATNECEITKRRRKSCQACRF,4.1
4,YKCPATNECEITKRRRKSCQACRF,3.15
5,YYCPATNECEITKRRRKSCQACRF,2.89
6,YACPATNECEITKRRRKSCQACRF,2.1
7,YQCPATNECEITKRRRKSCQACRF,2.55
8,YWCPATNECEITKRRRKSCQACRF,2.33
9,YRCPATNECEITKRRRKSCQACRF,4.17
10,YMCPATNECEITKRRRKSCQACRF,3.27
11,YCCPATNECEITKRRRKSCQACRF,2.52
12,YDCPATNECEITKRRRKSCQACRF,3.87
13,YHCPATNECEITKRRRKSCQACRF,2.47
14,YTCPATNECEITKRRRKSCQACRF,2.85
15,YSCPATYECEITKRRRKSCQACRF,2.06
16,YSCPATRECEITKRRRKSCQACRF,3.56
17,YSCPATSECEITKRRRKSCQACRF,3.01
18,YSCPATVECEITKRRRKSCQACRF,3.14
19,YSCPATPECEITKRRRKSCQACRF,3.55
20,YSCPATLECEITKRRRKSCQACRF,2.74
21,YSCPATCECEITKRRRKSCQACRF,2.42
22,YSCPATWECEITKRRRKSCQACRF,2.35
23,YSCPATEECEITKRRRKSCQACRF,3.19
24,YSCPATIECEITKRRRKSCQACRF,2.83

row,Variant,protein stability index
1,YSCPATFECEITKRRRKSCQACRF,2.52
2,YSCPATQECEITKRRRKSCQACRF,3.36
3,YSCPATMECEITKRRRKSCQACRF,2.96
4,YSCPATKECEITKRRRKSCQACRF,3.57
5,YSCPATHECEITKRRRKSCQACRF,3.88
6,YSCPATDECEITKRRRKSCQACRF,3.31
7,YSCPATGECEITKRRRKSCQACRF,3.29
8,YSCPATTECEITKRRRKSCQACRF,3.61
9,YSCPATAECEITKRRRKSCQACRF,2.64
10,YSCPCTNECEITKRRRKSCQACRF,3.43
11,YSCPYTNECEITKRRRKSCQACRF,3.05
12,YSCPRTNECEITKRRRKSCQACRF,2.89
13,YSCPLTNECEITKRRRKSCQACRF,3.2
14,YSCPMTNECEITKRRRKSCQACRF,3
15,YSCPTTNECEITKRRRKSCQACRF,2.78
16,YSCPNTNECEITKRRRKSCQACRF,3.27
17,YSCPQTNECEITKRRRKSCQACRF,3.26
18,YSCPDTNECEITKRRRKSCQACRF,3.38
19,YSCPKTNECEITKRRRKSCQACRF,3.36
20,YSCPGTNECEITKRRRKSCQACRF,3.58
21,YSCPPTNECEITKRRRKSCQACRF,3.12
22,YSCPITNECEITKRRRKSCQACRF,3.01
23,YSCPVTNECEITKRRRKSCQACRF,3.03
24,YSCPWTNECEITKRRRKSCQACRF,1.51

row,Variant,protein stability index
1,YSCPETNECEITKRRRKSCQACRF,3.73
2,YSCPSTNECEITKRRRKSCQACRF,3.33
3,YSCPFTNECEITKRRRKSCQACRF,2.79
4,YSCPHTNECEITKRRRKSCQACRF,3.73
5,YSCPARNECEITKRRRKSCQACRF,3.46
6,YSCPAVNECEITKRRRKSCQACRF,3.1
7,YSCPAENECEITKRRRKSCQACRF,3.37
8,YSCPAPNECEITKRRRKSCQACRF,2.2
9,YSCPACNECEITKRRRKSCQACRF,3.76
10,YSCPASNECEITKRRRKSCQACRF,3.1
11,YSCPAINECEITKRRRKSCQACRF,3.31
12,YSCPALNECEITKRRRKSCQACRF,3.1
13,YSCPAMNECEITKRRRKSCQACRF,3.38
14,YSCPANNECEITKRRRKSCQACRF,4.04
15,YSCPAFNECEITKRRRKSCQACRF,2.47
16,YSCPAGNECEITKRRRKSCQACRF,3.65
17,YSCPADNECEITKRRRKSCQACRF,3.71
18,YSCPAQNECEITKRRRKSCQACRF,3.42
19,YSCPAANECEITKRRRKSCQACRF,3.13
20,YSCPAHNECEITKRRRKSCQACRF,3.65
21,YSCPAKNECEITKRRRKSCQACRF,3.72
22,YSCPAYNECEITKRRRKSCQACRF,2.29
23,YSCPAWNECEITKRRRKSCQACRF,2.26
